Source: patent US20220411483A1 (Chugai, published 2022)

T1: FcγRIIa R type extracellular domain with C-terminal His tag (human, UniProt P12318 34-217)
T1 construct: extracellular domain; also called FcgRIIaR; not shown: His tag at the C terminus
T1 sequence (looked up): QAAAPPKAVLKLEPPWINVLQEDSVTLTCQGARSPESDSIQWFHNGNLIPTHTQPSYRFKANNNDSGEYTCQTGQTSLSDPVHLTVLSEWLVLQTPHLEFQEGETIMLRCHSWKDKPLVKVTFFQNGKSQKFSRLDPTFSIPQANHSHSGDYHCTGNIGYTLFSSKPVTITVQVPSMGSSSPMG

T2: FcγRIIb extracellular domain with C-terminal His tag (human, UniProt P31994 43-217)
T2 construct: extracellular domain; also called FcgRIIb; not shown: His tag at the C terminus
T2 sequence (looked up): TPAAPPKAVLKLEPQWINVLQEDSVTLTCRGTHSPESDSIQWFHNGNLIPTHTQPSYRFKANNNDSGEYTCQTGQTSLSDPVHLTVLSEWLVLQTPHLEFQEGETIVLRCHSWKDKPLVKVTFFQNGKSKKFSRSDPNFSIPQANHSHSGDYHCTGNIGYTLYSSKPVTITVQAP

B1: IL6R-BP269/IL6R-L (antibody, human IgG1, kappa, name in EU numbering)
heavy: QVQLQESGPGLVKPSETLSLTCAVSGHSISHDHAWSWVRQPPGEGLEWIGFISYSGITNYNPSLQGRVTISRDNSKNTLYLQMNSLRAEDTAVYYCARSLARTTAMDYWGEGTLVTVSSASTKGPSVFPLAPSSKSTSGGTAALGCLVKDYFPEPVTVSWNSGALTSGVHTFPAVLQSSGLYSLSSVVTVPSSSLGTQTYICNVNHKPSNTKVDKKVEPKSCDKTHTCPPCPAPELLGDDSVFLFPPKPKDTLMISRTPEVTCVVVDVSEEDGEVKFNWYVDGVEVHNAKTKPREEQDNSTYRVVSVLTVLHQDWLNGKEYKCKVSNKALPAPIEKTISKAKGQPREPQVYTLPPSRDELTKNQVSLTCLVKGFYPSDIAVEWESNGQPENNYKTTPPVLDSDGSFFLYSKLTVDKSRWQQGNVFSCSVMHEALHNHYTQESLSLSP
light: not shown
notes: human IgG1
B2: IL6R-BP479/IL6R-L (antibody, human IgG1, kappa, name in EU numbering)
heavy: QVQLQESGPGLVKPSETLSLTCAVSGHSISHDHAWSWVRQPPGEGLEWIGFISYSGITNYNPSLQGRVTISRDNSKNTLYLQMNSLRAEDTAVYYCARSLARTTAMDYWGEGTLVTVSSASTKGPSVFPLAPSSKSTSGGTAALGCLVKDYFPEPVTVSWNSGALTSGVHTFPAVLQSSGLYSLSSVVTVPSSSLGTQTYICNVNHKPSNTKVDKKVEPKSCDKTHTCPPCPAPDLLGDDSVFLFPPKPKDTLMISRTPEVTCVVIDLAEEDGEVKFNWYVDGVEVHNAKTKPREEQYNSTYRVVSVLTVLHQDWLNGKEYKCKVSNKALPAPIEKTISKAKGQPREPQVYTLPPSRDELTKNQVSLTCLVKGFYPSDIAVEWESNGQPENNYKTTPPVLDSDGSFFLYSKLTVDKSRWQQGNVFSCSVMHEALHNHYTQESLSLSP
light: not shown
notes: human IgG1
B3: IL6R-BP481/IL6R-L (antibody, human IgG1, kappa, name in EU numbering)
heavy: QVQLQESGPGLVKPSETLSLTCAVSGHSISHDHAWSWVRQPPGEGLEWIGFISYSGITNYNPSLQGRVTISRDNSKNTLYLQMNSLRAEDTAVYYCARSLARTTAMDYWGEGTLVTVSSASTKGPSVFPLAPSSKSTSGGTAALGCLVKDYFPEPVTVSWNSGALTSGVHTFPAVLQSSGLYSLSSVVTVPSSSLGTQTYICNVNHKPSNTKVDKKVEPKSCDKTHTCPPCPAPDLLGDDSVFLFPPKPKDTLMISRTPEVTCVVIDVAEEDGEVKFNWYVDGVEVHNAKTKPREEQYNSTYRVVSVLTVLHQDWLNGKEYKCKVSNKALPAPIEKTISKAKGQPREPQVYTLPPSRDELTKNQVSLTCLVKGFYPSDIAVEWESNGQPENNYKTTPPVLDSDGSFFLYSKLTVDKSRWQQGNVFSCSVMHEALHNHYTQESLSLSP
light: not shown
notes: human IgG1
B4: IL6R-BP483/IL6R-L (antibody, human IgG1, kappa, name in EU numbering)
heavy: QVQLQESGPGLVKPSETLSLTCAVSGHSISHDHAWSWVRQPPGEGLEWIGFISYSGITNYNPSLQGRVTISRDNSKNTLYLQMNSLRAEDTAVYYCARSLARTTAMDYWGEGTLVTVSSASTKGPSVFPLAPSSKSTSGGTAALGCLVKDYFPEPVTVSWNSGALTSGVHTFPAVLQSSGLYSLSSVVTVPSSSLGTQTYICNVNHKPSNTKVDKKVEPKSCDKTHTCPPCPAPDLLGDDSVFLFPPKPKDTLMISRTPEVTCVVVDLAEEDGEVKFNWYVDGVEVHNAKTKPREEQYNSTYRVVSVLTVLHQDWLNGKEYKCKVSNKALPAPIEKTISKAKGQPREPQVYTLPPSRDELTKNQVSLTCLVKGFYPSDIAVEWESNGQPENNYKTTPPVLDSDGSFFLYSKLTVDKSRWQQGNVFSCSVMHEALHNHYTQESLSLSP
light: not shown
notes: human IgG1
B5: IL6R-BP484/IL6R-L (antibody, human IgG1, kappa, name in EU numbering)
heavy: QVQLQESGPGLVKPSETLSLTCAVSGHSISHDHAWSWVRQPPGEGLEWIGFISYSGITNYNPSLQGRVTISRDNSKNTLYLQMNSLRAEDTAVYYCARSLARTTAMDYWGEGTLVTVSSASTKGPSVFPLAPSSKSTSGGTAALGCLVKDYFPEPVTVSWNSGALTSGVHTFPAVLQSSGLYSLSSVVTVPSSSLGTQTYICNVNHKPSNTKVDKKVEPKSCDKTHTCPPCPAPDLLGDDSVFLFPPKPKDTLMISRTPEVTCVVVDVAEDDGEVKFNWYVDGVEVHNAKTKPREEQYNSTYRVVSVLTVLHQDWLNGKEYKCKVSNKALPAPIEKTISKAKGQPREPQVYTLPPSRDELTKNQVSLTCLVKGFYPSDIAVEWESNGQPENNYKTTPPVLDSDGSFFLYSKLTVDKSRWQQGNVFSCSVMHEALHNHYTQESLSLSP
light: not shown
notes: human IgG1
B6: IL6R-BP492/IL6R-L (antibody, human IgG1, kappa, name in EU numbering)
heavy: QVQLQESGPGLVKPSETLSLTCAVSGHSISHDHAWSWVRQPPGEGLEWIGFISYSGITNYNPSLQGRVTISRDNSKNTLYLQMNSLRAEDTAVYYCARSLARTTAMDYWGEGTLVTVSSASTKGPSVFPLAPSSKSTSGGTAALGCLVKDYFPEPVTVSWNSGALTSGVHTFPAVLQSSGLYSLSSVVTVPSSSLGTQTYICNVNHKPSNTKVDKKVEPKSCDKTHTCPPCPAPELLGGDSVFLFPPKPKDTLMISRTPEVTCVVIDVAEEDGEVKFNWYVDGVEVHNAKTKPREEQYNSTYRVVSVLTVLHQDWLNGKEYKCKVSNKALPAPIEKTISKAKGQPREPQVYTLPPSRDELTKNQVSLTCLVKGFYPSDIAVEWESNGQPENNYKTTPPVLDSDGSFFLYSKLTVDKSRWQQGNVFSCSVMHEALHNHYTQESLSLSP
light: not shown
notes: human IgG1
B7: IL6R-BP494/IL6R-L (antibody, human IgG1, kappa, name in EU numbering)
heavy: QVQLQESGPGLVKPSETLSLTCAVSGHSISHDHAWSWVRQPPGEGLEWIGFISYSGITNYNPSLQGRVTISRDNSKNTLYLQMNSLRAEDTAVYYCARSLARTTAMDYWGEGTLVTVSSASTKGPSVFPLAPSSKSTSGGTAALGCLVKDYFPEPVTVSWNSGALTSGVHTFPAVLQSSGLYSLSSVVTVPSSSLGTQTYICNVNHKPSNTKVDKKVEPKSCDKTHTCPPCPAPELLGDDSVFLFPPKPKDTLMISRTPEVTCVVVDVAEEDGEVKFNWYVDGVEVHNAKTKPREEQDNSTYRVVSVLTVLHQDWLNGKEYKCKVSNKALPRPIEKTISKAKGQPREPQVYTLPPSRDELTKNQVSLTCLVKGFYPSDIAVEWESNGQPENNYKTTPPVLDSDGSFFLYSKLTVDKSRWQQGNVFSCSVMHEALHNHYTQESLSLSP
light: not shown
notes: human IgG1
B8: IL6R-BP500/IL6R-L (antibody, human IgG1, kappa, name in EU numbering)
heavy: QVQLQESGPGLVKPSETLSLTCAVSGHSISHDHAWSWVRQPPGEGLEWIGFISYSGITNYNPSLQGRVTISRDNSKNTLYLQMNSLRAEDTAVYYCARSLARTTAMDYWGEGTLVTVSSASTKGPSVFPLAPSSKSTSGGTAALGCLVKDYFPEPVTVSWNSGALTSGVHTFPAVLQSSGLYSLSSVVTVPSSSLGTQTYICNVNHKPSNTKVDKKVEPKSCDKTHTCPPCPAPELLGDDSVFLFPPKPKDTLMISRTPEVTCVVIDVAEEDGEVKFNWYVDGVEVHNAKTKPREEQDNSTYRVVSVLTVLHQDWLNGKEYKCKVSNKALPAPIEKTISKAKGQPREPQVYTLPPSRDELTKNQVSLTCLVKGFYPSDIAVEWESNGQPENNYKTTPPVLDSDGSFFLYSKLTVDKSRWQQGNVFSCSVMHEALHNHYTQESLSLSP
light: not shown
notes: human IgG1

How the values were obtained:
[1] = biological target: T1, FcγRIIa R type extracellular domain …; assay: SPR, antibody captured, FcgR analyte
[2] = biological target: T3, FcγRIa extracellular domain with C-terminal His tag (human, UniProt P12314 16-292); assay: SPR, antibody captured, FcgR analyte
T3 construct: also called FcgRIa; CD64; not shown: His tag at the C terminus
T3 sequence (P12314 16-292): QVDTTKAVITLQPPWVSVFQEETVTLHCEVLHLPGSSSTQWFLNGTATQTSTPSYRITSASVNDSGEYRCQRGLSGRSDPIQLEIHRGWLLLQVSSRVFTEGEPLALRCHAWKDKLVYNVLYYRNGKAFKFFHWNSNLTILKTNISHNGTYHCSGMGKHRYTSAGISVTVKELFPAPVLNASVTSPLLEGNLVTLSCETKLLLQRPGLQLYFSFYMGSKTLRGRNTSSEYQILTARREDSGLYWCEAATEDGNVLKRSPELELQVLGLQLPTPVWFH

[3] = biological target: T2, FcγRIIb extracellular domain with …; assay: SPR, antibody captured, FcgR analyte
[4] = biological target: T1, FcγRIIa R type extracellular domain …; assay: SPR; KD of IL6R-B3/IL6R-L divided by KD of variant
[5] = biological target: T2, FcγRIIb extracellular domain with …; assay: SPR; KD of IL6R-B3/IL6R-L divided by KD of variant

| Binder | Kd [1] | Kd [2] | Kd [3] | Relative FcgRIIaR-binding Activity [4] | Relative FcgRIIb-binding Activity [5] |
| --- | --- | --- | --- | --- | --- |
| B1 | 2200 nM | 14 nM | 110 nM | 0.5 | 27.3 |
| B2 | 900 nM | 5.3 nM | 56 nM | 1.2 | 55.3 |
| B3 | 400 nM | 1 nM | 19 nM | 2.7 | 159 |
| B4 | 1300 nM | 1.3 nM | 78 nM | 0.8 | 39.6 |
| B5 | 780 nM | 0.82 nM | 46 nM | 1.4 | 67.6 |
| B6 | 920 nM | 0.79 nM | 24 nM | 1.2 | 131 |
| B7 | 250 nM | 3.9 nM | 6.6 nM | 4.3 | 470 |
| B8 | 720 nM | 2.3 nM | 24 nM | 1.5 | 128 |
